Experimental data as given in PMC6726451 (Science Advances, 2019).

Key:
[1] = biological target: the molecule itself; assay: SEC
[2] = biological target: the molecule itself; assay: SEC-MALS

B1: caseinolytic protease ClpP from Thermus thermophilus (TtClpP) (enzyme)
chain: not shown
B1 was tested, and the “stoichiometry N” value [1] was 7 and the “stoichiometry N” value [2] was 14.
